This passage reports GeoMean results from patent publication US20120328616A1 (Amgen, published 2012).

Test [1] deals with T1, human FGFR1c (human, UniProt P11362 22-822).
T1 construct: Full length (GenBank NP-075598), expressed on transfected 293T cells; also called huFGFR1c; FGFR1c alone
Kind of test: flow cytometry, transfected HEK293T; mock-transfected cells 688. (A flow cytometer gives signals particle by particle.)
Method: (§1) This solution was then added dropwise to 10 million HEK293T cells in 10 ml of media. 24 hours following transfection, the cells were washed and 50,000 cells were stained with each primary antibody, 50 μl of unpurified hybridoma supernatant was diluted 1:2 and used for staining cells. After a one hour incubation at 4° c., the cells were washed and an anti-Human Fc-specific secondary was added. Stained cells were then analyzed on a flow cytometer.

Test [2] addresses T2, human FGFR1c/human β-Klotho complex (FGF21 receptor) (human, UniProt P11362 22-822).
T2 construct: Both full-length proteins co-expressed on cells (HEK293T, CHO, L6); also called HuFGFR1c/Hu β-Klotho; huFGF21R
The description is as above.
Method: as §1

The target in test [3] is T3, cynomologous monkey FGFR1c/cynomologous monkey β-Klotho (co-transfected) (cynomologous monkey).
T3 construct: whole, on cells; also called Cyno FGFR1c/Cyno β-Klotho
The test is described as above.
Method: as §1

Test [4] addresses T1, human FGFR1c. Kind of test: flow cytometry, transfected HEK293T; mock-transfected cells 723.
Method: as §1
In test [5] the target is T2, human FGFR1c/human β-Klotho complex …. Described as above.
Method: as §1
Test [6] addresses T3, cynomologous monkey FGFR1c/cynomologous …. The description is as above.
Method: as §1
The target in test [7] is T1, human FGFR1c. The test is described as follows: flow cytometry, transfected HEK293T; mock-transfected cells 705.
Method: as §1
In test [8] the target is T2, human FGFR1c/human β-Klotho complex …. The description is as above.
Method: as §1
The target of test [9] is T3, cynomologous monkey FGFR1c/cynomologous …. The description is as above.
Method: as §1
In test [10] the target is T1, human FGFR1c. Kind of test: flow cytometry, transfected HEK293T; mock-transfected cells 632.
Method: as §1
The target of test [11] is T2, human FGFR1c/human β-Klotho complex …. Described as above.
Method: as §1
Test [12] addresses T3, cynomologous monkey FGFR1c/cynomologous …. Described as above.
Method: as §1

Substitutions are numbered along the chain they refer to.

B1: 67C10.1 (antibody, V domains shown)
VH: EVQLVQSGAEVKKPGESLKISCQGSGYSFSSYWIGWVRQMPGKGLEWMGIIYPGDSDTRYSPSFQGQVTISADKSINTAYLQWSSLKASDTAIYYCARRASRGYRYGLAFAIWGQGTMVTVSS
VL: DFVMTQTPLSLPVTPGEPASISCRSSQSLLNSDDGNTYLDWYLQKPGQSPQLLIYTLSYRASGVPDRFSGSGSGTDFTLKISRVEAEDVGVYYCMQRIEFPITFGQGTRLEIKR
As to B1, the GeoMean in the test with human FGFR1c [1] came to 780; in test [2], 18900; in test [3] it was 4060.

B2: 51E5.1 (antibody, V domains shown)
VH: QVQLQQWGAGLLKPSETLSLTCAVYGGSFSGYYWSWIRQPPGKGLEWIGELDHSGSINYNPSLKSRVTISVDTSKNQFSLKLTSVTAADTAVYYCARVLGSTLDYWGQGTLVTVSS
VL: DIQMTQSPSSLSASVGDRVTITCRASQDIRNDLGWYQQKPGKAPNRLIYAASSLQFGVPSRFSGSGSGTEFTLTISSLQPEDFATYYCLQHSSYPLTFGGGTRVEIKR
Take B2: the GeoMean with human FGFR1c [4] is 747; in [5] it was 21000; in test [6], 36500.

B3: 65C3.1 (antibody, V domains shown)
VH: QVQLQESGPGLVKPSETLSLTCTVSGGSISSYYWSWIRQPPGKGLEWIGYIYYTGSTNYNPSLKSRVTISVDTSKNQFSLKLSSVTAADTAVYYCAREYYYGSGSYYPWGQGTLVTVSS
VL: EMVMTQSPATLSVSPGERATLSCRASQSVSSQLAWYQEKPGRAPRLLIYGASNRAIDIPARLSGSGSGTEFTLTISSLQSEDFAVYYCQQYNNWPWTFGQGTKVEFKR
As for B3, the GeoMean worked out at 719 with human FGFR1c [7], 18800 in [8] and 24600 in test [9].

B4: 67F5.1 (antibody, V domains shown)
VH: B3 VH with Q5K, T54S, S56N
VL: EIVMTQSPATLSVSPGERVTLSCRASQSVSSNLAWYQQKPGQAPRLLIHGSSNRAIGIPARFSGSGSGTEFTLTISSLQSADFAVYNCQQYEIWPWTFGQGTKVEIKR
On to B4, for which the GeoMean was found to be 757 with human FGFR1c [10], 13900 in [11] and 15800 in [12].
